Experimental data published in the supplement of paper PMC10567573.

B1: ZNF263 (parent)
chain: CSECGESFSRSSRLMSHQRTHTG
B2: ETS1 (parent)
chain: FSEPSFITESYQTLHPISSEELLS

Variants of: B1
Assay: protein stability index of a GFP-peptide fusion (GPS, HEK-293T) (PSI 1-6); higher = more stable
Details: c terminus: native
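Further: lentivirally expressed fusions sorted by FACS into six bins by GFP to DsRed ratio, PSI derived from sequencing read proportions per bin multiplied by bin number.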

Protein stability index of substitutions, site by site:
G23: W 3.79, P 4.52, S 4, V 3.56, Q 4.16, R 4.2, T 4.04, Y 3.29

Variants of: B2
Assay: as above
Details: c terminus: a fixed tail appended

Protein stability index, by site and new letter:
I7: C 2.03, G 2.33, F 1.68, M 2.31, Q 3.83, D 4.01, E 4.03, H 2.42, W 2.33, A 1.59, K 3.73, R 3.17, P 3.09, N 4.24, S 3.55
Y11: H 2.25, L 1.71, S 2.2, K 2.81, A 2.21, W 1.34, C 1.67, I 2.04, V 1.78, F 1.73, G 2.57, P 3.21, Q 2.57
E9: K 1.97, Q 2.02, P 1.75, H 2, A 1.76, N 1.62, G 1.88, Y 1.77, W 2.06, L 1.5, F 2.58, R 2.24, D 1.88, T 1.94
L23: E 2.44, N 2.31, P 2.14, V 2.06, H 2.61, Y 1.78, K 2.83, C 1.97, Q 2.59, D 2.47, I 1.52, T 2.29, S 2.07
T8: H 2.04, N 2.91, I 1.98, S 2.38, Y 2.17, A 2.29, V 1.36, P 3.5, G 2.05, L 1.92, F 1.95, C 2.22, Q 2.59, R 2.12
S24: N 1.79, E 2.54, L 1.69, F 1.65, K 2.49, V 1.62, D 2.15, Q 2.16, R 1.86, C 1.5, M 1.97, P 2.04, G 1.86, I 1.85, H 1.91
S5: F 2.26, C 1.69, R 2.63, E 2.35, G 2.09, A 2.07, I 1.48, P 2.66, T 2.1, H 1.58, L 1.99, D 2.51
S18: K 1.49, I 1.83, L 1.99, A 1.93, Q 2.3, N 2.04, W 1.38, V 2.13, M 2, E 2.18, F 1.79, D 2.33, H 2.35, Y 2.24
S10: A 1.74, E 3, W 1.5, G 1.72, T 2.15, I 1.86, D 2.82, N 1.99, H 2.06, P 2.62, M 2.02, K 2.25
L14: Y 1.55, N 2.08, P 2.1, G 2.19, T 2.5, R 2.07, S 2.44, A 2.08, K 2.19, V 2.09, D 2.44, I 1.94, M 1.88, F 1.74
H15: W 1.67, P 2.27, A 2.27, I 2.03, C 2.17, V 2.49, G 1.75, L 1.99, T 2.38, Y 1.51, E 2.12, N 1.71, Q 2.29, M 1.96
S2: E 3.98, D 4.15, N 3.37, P 1.95, A 2.42, K 3.34, G 2.63, V 2.42, F 2.26, I 3.17, Q 1.65, W 2.1, Y 2.62
P16: R 1.69, C 2.07, I 1.6, T 1.9, Y 1.67, V 2.16, A 1.68, Q 2.13, M 1.47, W 1.17, H 1.81, E 1.95, K 1.88, F 2.08, D 1.81
L22: G 2.03, Y 2.04, C 1.97, W 1.62, R 2.19, P 2.42, S 2, I 2.2, M 2, Q 2.19, K 2.55, A 2.04
F1: R 4.2, Y 2.1, M 4, E 4.56, W 3.67, C 3.52, Q 4.43, P 4.23, S 4.07, L 4.45, K 4.06, T 4.51, N 4.24
F6: M 3.48, R 4.13, S 4.2, V 3.23, Q 4.76, N 4.57, C 3.36, H 4.14, P 4.26, E 4.53, I 3.15, Y 2.74, A 4
P4: V 1.49, I 1.54, A 2.21, F 1.92, R 2.13, K 2.45, S 2.39, Y 2.2, D 3.65, L 2.03, C 2.2, H 2.54, M 2.19, Q 2.81, T 2.65, W 2.17
T13: E 2.07, C 1.67, F 1.53, S 2.35, M 1.28, D 2.23, H 1.62, K 1.93, A 2.16, G 1.9, Y 1.93, W 2.54, I 1.93
S19: N 2.35, I 2.13, C 1.78, G 1.99, M 2.19, W 2, L 1.81, A 1.7, P 2.11, E 2.46, K 1.72, H 1.94, V 1.84, T 2.21
I17: L 2.45, F 1.84, P 2.34, H 1.76, W 2.06, C 1.74, Q 2.31, G 1.81, V 2.14, R 2.59, T 2.78, D 2.12
E20: N 1.7, R 2.08, K 1.82, G 1.62, T 2.08, S 2.11, M 2.28, D 1.63, W 1.61, H 2.14, A 1.92, L 1.95, I 1.78
E3: C 1.7, M 1.9, V 2.5, Q 1.7, P 2.9, L 1.81, D 1.74, W 1.5, G 2, R 2.25, A 2.37, F 1.6, K 2.05, S 2.21, H 2.17, T 2.35
Q12: G 1.84, T 1.59, E 2.27, D 2.52, V 1.62, C 2.24, A 2.1, M 1.95, K 1.85, F 1.98, P 1.91, I 1.58, R 1.92, S 1.88, H 2.05
E21: K 1.84, L 1.93, Q 2.06, G 1.91, W 1.99, Y 1.49, D 1.74, A 1.53, F 1.99, S 1.52, T 2
